Assay results taken from patent publication US20160228520A1.

Target: PR-3 receptor (proteinase 3) on TNF-primed human peripheral blood neutrophils (human) (UniProt P24158)
Assay: cell-based or functional assay

Sequence of UniProt P24158 (P24158 28-248): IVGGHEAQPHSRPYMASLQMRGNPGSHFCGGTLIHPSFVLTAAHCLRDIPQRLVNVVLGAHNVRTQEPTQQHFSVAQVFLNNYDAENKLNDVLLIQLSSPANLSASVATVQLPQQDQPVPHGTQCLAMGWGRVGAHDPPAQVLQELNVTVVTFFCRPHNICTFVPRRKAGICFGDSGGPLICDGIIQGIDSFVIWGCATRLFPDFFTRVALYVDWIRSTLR

% Release of calcein from HUVEC, α-PR3 mAbs added, negative control (0.25 mg/mL α1 antichymotrypsin by the text): 21.9% | Mean fluorescence, HUVEC assay, α-PR3 mAbs added, negative control: 4420
Substance: α1-antichymotrypsin (Athens Research & Technology, Cat. No. 16-16-012400) (from UniProt P01011 24-423)
